Measured values taken from US20180016352A1 (published 2018).

Assays:
Experiment in all cases: indirect ELISA, recombinant receptor coated, anti-c-myc HRP
[1] = biological target: recombinant Mesothelin (UniProt Q13421 296-580, limits assumed)
Protocol: (§1) The target binding of the BsAbs was evaluated by indirect ELISA methods using PEG polymer and recombinant target proteins immobilized on ELISA plates. Individual wells of a 96 well Maxisorp plate were coated with 100 μL of 10 μg/mL of polymer (polyethylene glycol monomethyl ether methacrylate) or 10 μg/mL of target recombinant receptor (EphA2, VEGFR2, Mesothelin and EGFR) for 16-20 hr at 4C. PEG and target receptors were diluted in phosphate buffered saline (PBS pH 7.4). […] The blocker was decanted and 100 μL of BsAb, either in cell culture supernatant or purified protein stored in PBS, was added to each well. The BsAb was incubated for 2 hr and then decanted. The wells were washed five times manually in PBST and 100 μL of HRP labeled anti-c-myc antibody diluted 1/5000 in blocker was added to each well and incubated for 30 mins. The c-myc antibody was then decanted and the wells washed again five times manually with PBST. One hundred microliters of TMB was added to all wells and incubated for 10-15 mins or until adequate color development was identified. The TMB colorimetric reaction was neutralized by adding 100 μL of 2M sulfuric acid. The colorimetric reactions in each well was analyzed at an absorbance of 450 nm using the Spectramax plate reader.

[2] = biological target: recombinant EphA2 receptor (UniProt P29317 25-534, limits assumed)
recombinant EphA2 receptor, sequence (P29317 25-534 limits assumed): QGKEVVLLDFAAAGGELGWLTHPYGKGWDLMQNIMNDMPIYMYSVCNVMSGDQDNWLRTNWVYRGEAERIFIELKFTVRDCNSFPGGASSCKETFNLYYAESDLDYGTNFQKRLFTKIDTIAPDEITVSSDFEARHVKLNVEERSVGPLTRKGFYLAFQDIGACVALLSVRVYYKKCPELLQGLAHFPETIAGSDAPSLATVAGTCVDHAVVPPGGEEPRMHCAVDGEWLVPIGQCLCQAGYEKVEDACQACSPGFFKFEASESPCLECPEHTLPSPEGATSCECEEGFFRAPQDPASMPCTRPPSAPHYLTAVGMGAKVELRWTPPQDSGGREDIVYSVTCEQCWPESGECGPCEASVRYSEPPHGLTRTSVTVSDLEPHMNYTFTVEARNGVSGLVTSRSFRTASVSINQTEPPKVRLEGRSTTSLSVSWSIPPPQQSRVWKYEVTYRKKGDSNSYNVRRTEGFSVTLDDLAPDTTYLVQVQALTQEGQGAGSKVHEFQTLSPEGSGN
Protocol: as §1

[3] = biological target: T1, recombinant EGFR (UniProt P00533 25-645, limits assumed)
T1 construct: It may be the same reagent as rEGFR-hFc; also called rEGFR
Protocol: as §1

recombinant Mesothelin, sequence (Q13421 other isoform, or with tags, fused parts or gaps limits assumed): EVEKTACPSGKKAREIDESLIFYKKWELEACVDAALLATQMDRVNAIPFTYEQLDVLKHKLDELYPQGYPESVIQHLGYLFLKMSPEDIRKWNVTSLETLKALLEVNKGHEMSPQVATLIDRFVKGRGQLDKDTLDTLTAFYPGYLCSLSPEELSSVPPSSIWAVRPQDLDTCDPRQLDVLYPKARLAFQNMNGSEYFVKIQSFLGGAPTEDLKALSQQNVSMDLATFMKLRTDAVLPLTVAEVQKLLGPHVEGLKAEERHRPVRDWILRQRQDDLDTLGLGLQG

binding result [1]: no binding | binding result [2]: no binding | binding result [3]: no binding
B1: VEGF-15.2 (BsAb targeting VEGFR2) (other)
chain: HHHHHHEVVKFMDVYQRSYCHPIETLVDIFQEYPDEIEYIFKPSCVPLMRCGGCCNDEGLECVPTEESNITMQIMRIKPHQGQHIGEMSFLQHNKCECRPKKDGSTSGSGKSSEGKGEVVKFMDVYQRSYCHPIETLVDIFQEYPDEIEYIFKPSCVPLMRCGGCCNDEGLECVPTEESNITMQIMRIKPHQGQHIGEMSFLQHNKCECRPKKDSGGGGSEVKLEESGGGLVQPGGSMKLSCVASGFTFSNYWMNWVRQSPEKGLEWVTEIRSKSNNYATHYAESVKGRFTISRDDSKGSVYLQMNNLRAEDTGIYYCSNRYYWGQGTLVTVSAGGGGSGGGGSGGGGSDIVMTQSHKFMSTSVRDRVTITCKASQDVNTSVAWYQQKPGQSPKLVIYWASTRHTGVPDRFTGSGSGTDFTLTISNVQSEDLADYFCLQYINYPYTFGGGTKLEIKEQKLISEEDLN
